Consider 3 variants from PMC9328677 (2021).

A word on the Kd: it is the free concentration of one partner at which half of the binding sites on the other are occupied at equilibrium, for simple one-to-one binding.

B1: acidic domain of Homo sapiens APLF (APLF^AD, residues 450 to 511), wild type [Homo sapiens] / stoichiometric mixture of full-length Drosophila melanogaster H2A-H2B and H3-H4 (octamer-mix) [Drosophila melanogaster] (parent complex)
chain 1: DEDNDNVGQPNEYDLNDSFLDDEEEDYEPTDEDSDWEPGKEDEEKEDVEELLKEAKRFMKRK
chain 2: not shown
chain 3: not shown
chain 4: not shown
chain 5: not shown

Variants of B1 are the subject of this test. As to the kind of experiment: ITC. Background: In ITC the heat of successive injections is recorded.
As for chain 1 Y13A, chain 1 F19A, the dissociation constant Kd worked out at 671 nM.

chain 1 Y27A, chain 1 W36A: the Kd turned out to be 317 nM.

On to chain 1 Y13A, chain 1 F19A, chain 1 Y27A, chain 1 W36A, for which the dissociation constant Kd came out at 794 nM.
